# From PMC2597375 (Nature structural & molecular biology, 2008)
# Where no end group is shown, it is not given here. [ ]: non-standard residue; d: D form. pS = N[C@@H](COP(=O)(O)O)C(=O)O
# Assays:
# [1] = biological target: unlabeled double-repeat CTD-Ser5P peptide (S. cerevisiae); test: fluorescence polarisation
# [2] = biological target: unlabeled double-repeat CTD-Ser2P/Ser5P peptide (S. cerevisiae); test: fluorescence polarisation
# Nrd1_(6–151) K21D = biological target: T1, Nrd1_(6–151) K21D (S. cerevisiae, UniProt P53617 6-151, K21D); test: fluorescence polarisation
# T1 sequence: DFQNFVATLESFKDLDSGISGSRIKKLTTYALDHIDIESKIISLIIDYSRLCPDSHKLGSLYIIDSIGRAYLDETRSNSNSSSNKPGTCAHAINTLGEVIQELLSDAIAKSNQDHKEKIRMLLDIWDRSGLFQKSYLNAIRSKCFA
# Nrd1_(6–151) K21P = biological target: T2, Nrd1_(6–151) K21P (S. cerevisiae, UniProt P53617 6-151, K21P); test: fluorescence polarisation
# T2 sequence: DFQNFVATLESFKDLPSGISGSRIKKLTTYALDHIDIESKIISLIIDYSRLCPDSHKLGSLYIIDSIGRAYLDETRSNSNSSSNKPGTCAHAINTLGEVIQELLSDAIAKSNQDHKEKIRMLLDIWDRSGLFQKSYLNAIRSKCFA
# Nrd1_(6–151) I130R = biological target: T3, Nrd1_(6–151) I130R (S. cerevisiae, UniProt P53617 6-151, I130R); test: fluorescence polarisation
# T3 sequence: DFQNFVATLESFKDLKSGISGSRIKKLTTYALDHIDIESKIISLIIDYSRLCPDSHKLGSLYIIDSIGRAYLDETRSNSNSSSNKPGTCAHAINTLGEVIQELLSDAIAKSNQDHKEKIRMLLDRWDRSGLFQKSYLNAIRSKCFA
# Nrd1_(6–151) wild-type = biological target: T4, Nrd1_(6–151) wild-type (S. cerevisiae, UniProt P53617 6-151); test: fluorescence polarisation
# T4 sequence: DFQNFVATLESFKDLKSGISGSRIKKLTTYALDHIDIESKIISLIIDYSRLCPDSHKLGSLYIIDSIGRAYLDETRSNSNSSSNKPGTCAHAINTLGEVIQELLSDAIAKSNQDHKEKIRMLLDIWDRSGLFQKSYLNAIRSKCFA
# Nrd1_(6–151) S22D = biological target: T5, Nrd1_(6–151) S22D (S. cerevisiae, UniProt P53617 6-151, S22D); test: fluorescence polarisation
# T5 sequence: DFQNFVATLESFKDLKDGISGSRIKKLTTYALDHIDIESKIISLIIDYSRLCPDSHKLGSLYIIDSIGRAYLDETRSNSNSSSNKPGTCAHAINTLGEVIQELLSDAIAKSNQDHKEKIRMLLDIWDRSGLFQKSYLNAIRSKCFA
# Nrd1_(6–151) L20D = biological target: T6, Nrd1_(6–151) L20D (S. cerevisiae, UniProt P53617 6-151, L20D); test: fluorescence polarisation
# T6 sequence: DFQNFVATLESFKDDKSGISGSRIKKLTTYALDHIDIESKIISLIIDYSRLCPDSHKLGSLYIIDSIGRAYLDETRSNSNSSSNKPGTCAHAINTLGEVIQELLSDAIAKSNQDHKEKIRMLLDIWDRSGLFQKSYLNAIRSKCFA
# Pol II = assay type: binding, S. cerevisiae; conditions: whole-cell extracts, IgG purification, anti-CTD Ser5P (H14) immunoblot
# CTD = CTD binding of Nrd1 variants; conditions: point mutants: fluorescence anisotropy, Table 1; deletions: data not shown
# Nrd1_(6–224) = biological target: T7, Nrd1_(6–224) (S. cerevisiae, UniProt P53617 6-224); test: ITC
# T7 sequence: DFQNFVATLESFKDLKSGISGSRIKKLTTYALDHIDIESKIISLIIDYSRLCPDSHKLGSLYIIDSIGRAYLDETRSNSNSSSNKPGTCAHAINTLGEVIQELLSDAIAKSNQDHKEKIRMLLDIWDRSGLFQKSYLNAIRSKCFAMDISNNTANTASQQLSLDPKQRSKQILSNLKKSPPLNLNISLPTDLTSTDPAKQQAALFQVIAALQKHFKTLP
Molecule,Kd [1] [µM],Kd [2] [µM],also measured
Nrd1_(6–214) wild-type (from UniProt P53617 6-214) (domain or fragment),48,–,–
Nrd1_(6–151) L20D (from UniProt P53617 6-151) (domain or fragment),–,19,–
Nrd1_(6–151) wild-type (from UniProt P53617 6-151) (domain or fragment),40,16,–
Y[pS]PTSPSY[pS]PTSPS [unlabeled double-repeat CTD-Ser2P peptide],–,–,Kd (Nrd1_(6–151) K21D): 610 µM; Kd (Nrd1_(6–151) K21P): 380 µM; Kd (Nrd1_(6–151) I130R): 550 µM; Kd (Nrd1_(6–151) wild-type): 390 µM; Kd (Nrd1_(6–151) S22D): 470 µM; Kd (Nrd1_(6–151) L20D): 560 µM
"Nrd1Δ6–150 (protein, left off: TAP (with Protein A module), end not stated, kept) MQQDDAMDISNNTANTASQQLSLDPKQRSKQILSNLKKSPPLNLNISLPTDLTSTDPAKQQAALFQVIAALQKHFKTLPSHTSVGTVAPPQAHTITEYGSRRERERERERYNSRRNRSRSPPAPFSQPSTGRKDRYPSVAQDQYSIGAPNTTFGTNNHHLYPDELNVSNNPHYRPKPVSYDSTLPPDHIKVYSRTLFIGGVPLNMKEWDLANVLKPFAEVQSVILNNSRKHAFVKVYSRHEAENVLQNFNKDGALPLRTRWGVGFGPRDCCDYQHGYSIIPMHRLTDADKKWSVSAQWGGTSGQPLVTGIVFEEPDIIVGEGVSSKAISQKMPTDSGRNGPRSGKPNKSGSISSISPVPYGNAPLASPPPQQYVQPMMQQPYGYAPNQPLPSQGPAAAAPPVPQQQFDPTAQLNSLMNMLNQQQQQQQQS",–,–,Association with Pol II (Pol II): greatly reduced association with Pol II
"Nrd1Δ151–214 (protein, left off: TAP (with Protein A module), end not stated, kept) MQQDDDFQNFVATLESFKDLKSGISGSRIKKLTTYALDHIDIESKIISLIIDYSRLCPDSHKLGSLYIIDSIGRAYLDETRSNSNSSSNKPGTCAHAINTLGEVIQELLSDAIAKSNQDHKEKIRMLLDIWDRSGLFQKSYLNAIRSKCFALQKHFKTLPSHTSVGTVAPPQAHTITEYGSRRERERERERYNSRRNRSRSPPAPFSQPSTGRKDRYPSVAQDQYSIGAPNTTFGTNNHHLYPDELNVSNNPHYRPKPVSYDSTLPPDHIKVYSRTLFIGGVPLNMKEWDLANVLKPFAEVQSVILNNSRKHAFVKVYSRHEAENVLQNFNKDGALPLRTRWGVGFGPRDCCDYQHGYSIIPMHRLTDADKKWSVSAQWGGTSGQPLVTGIVFEEPDIIVGEGVSSKAISQKMPTDSGRNGPRSGKPNKSGSISSISPVPYGNAPLASPPPQQYVQPMMQQPYGYAPNQPLPSQGPAAAAPPVPQQQFDPTAQLNSLMNMLNQQQQQQQQS",–,–,Association with Pol II (Pol II): greatly reduced association with Pol II
Nrd1_(6–151) K21P (domain or fragment) DFQNFVATLESFKDLPSGISGSRIKKLTTYALDHIDIESKIISLIIDYSRLCPDSHKLGSLYIIDSIGRAYLDETRSNSNSSSNKPGTCAHAINTLGEVIQELLSDAIAKSNQDHKEKIRMLLDIWDRSGLFQKSYLNAIRSKCFA,70,48,–
Nrd1_(6–151) I130R (domain or fragment) DFQNFVATLESFKDLKSGISGSRIKKLTTYALDHIDIESKIISLIIDYSRLCPDSHKLGSLYIIDSIGRAYLDETRSNSNSSSNKPGTCAHAINTLGEVIQELLSDAIAKSNQDHKEKIRMLLDRWDRSGLFQKSYLNAIRSKCFA,215,27,–
Nrd1_(6–151) K21D (domain or fragment) DFQNFVATLESFKDLDSGISGSRIKKLTTYALDHIDIESKIISLIIDYSRLCPDSHKLGSLYIIDSIGRAYLDETRSNSNSSSNKPGTCAHAINTLGEVIQELLSDAIAKSNQDHKEKIRMLLDIWDRSGLFQKSYLNAIRSKCFA,95,70,–
Nrd1_(6–151) S22D (domain or fragment) DFQNFVATLESFKDLKDGISGSRIKKLTTYALDHIDIESKIISLIIDYSRLCPDSHKLGSLYIIDSIGRAYLDETRSNSNSSSNKPGTCAHAINTLGEVIQELLSDAIAKSNQDHKEKIRMLLDIWDRSGLFQKSYLNAIRSKCFA,140,100,–
Nrd1_(6–151) D70R (domain or fragment) DFQNFVATLESFKDLKSGISGSRIKKLTTYALDHIDIESKIISLIIDYSRLCPDSHKLGSLYIIRSIGRAYLDETRSNSNSSSNKPGTCAHAINTLGEVIQELLSDAIAKSNQDHKEKIRMLLDIWDRSGLFQKSYLNAIRSKCFA,680,100,–
Nrd1_307–560: containing only the RNA binding region and the C-terminal region (protein) PDELNVSNNPHYRPKPVSYDSTLPPDHIKVYSRTLFIGGVPLNMKEWDLANVLKPFAEVQSVILNNSRKHAFVKVYSRHEAENVLQNFNKDGALPLRTRWGVGFGPRDCCDYQHGYSIIPMHRLTDADKKWSVSAQWGGTSGQPLVTGIVFEEPDIIVGEGVSSKAISQKMPTDSGRNGPRSGKPNKSGSISSISPVPYGNAPLASPPPQQYVQPMMQQPYGYAPNQPLPSQGPAAAAPPVPQQQFDPTAQLNS,–,–,CTD binding of Nrd1 variant (CTD): no CTD binding
ENVNYDLLQKQVKYIMDSNMLNLPQFQHLPQEEKMSAILAMLNSN (domain or fragment) [Nab3_(204–248)],–,–,Kd (Nrd1_(6–224)): 0.16 µM; stoichiometry N (Nrd1_(6–224)): 1
